Test results published in paper PMC9785812 (Pharmaceutics, 2022).
Read-outs that look alike come from different tables or passages of the source.

What was measured:
[1] = Ex vivo biodistribution in healthy BALB/c mice; set-up: species or system mouse; settings: mouse, iv; for tissue uptake dose at 1 h / tissue uptake dose at 24 h / tissue uptake dose at 72 h / SUV at 1 h / SUV at 4 h / SUV at 24 h / SUV at 72 h / tissue uptake dose at 4 h: total radioactivity
Experimental: Quantification of activity was performed with an automated gamma counter equipped with a 3-in NaI(Tl) detector coupled to a multichannel analyzer (2480 Wizard^2, Perkin Elmer, Zaventem, Belgium). The results were corrected for background signal, physical decay during counting and detector dead time.
All animal experiments were performed in compliance with the Ethical Committee Animal Studies of Medanex Clinic (EC MxCl 2020-163 and EC MxCl 2021-173), the Belgian laboratory animal legislation and the European Communities Council Directive of 22 September 2010 (2010/63/EU). Male BALB/c and NMRI nude mice were purchased from Janvier (Bio Services, Uden, The Netherlands) and housed in ventilated cages under standard laboratory conditions (12 h light/dark cycle) at the animal facility of SCK CEN. All animals had access to food and water ad libitum.
Additionally, similar biodistribution studies were performed with free (unlabeled) [^153Sm]SmCl3 to identify the organs with ^153Sm accumulation in case of release from the complex. […] The mice were sacrificed by an overdose pentobarbital (200 µL of 60 mg/mL) 1, 4, 24 and 72 h post-injection (p.i.) (n = 3–4 per time point). Blood was collected via cardiac puncture. Organs of interest were collected in tared tubes and weighed. The activity in the different organs was measured in the gamma counter. For the calculation of the total activity in the blood, bone and muscle, the masses were assumed to be, respectively, 7, 12 and 40% of the total body mass. Data were expressed as a percentage of injected activity (%IA) and standardized uptake value (SUV). %IA was calculated as (counts per min (cpm) in organ)/(IA converted to cpm) × 100. SUV was calculated as (activity in cpm in organ/weight of organ in g)/(IA/total body weight in g).

[2] = Stability test in PBS (iTLC); format: physicochemical; settings: 37 °C, up to 7 days, ~5 MBq in 250 µL added to 4.75 mL, iTLC-SG, 0.5 M citrate pH 5.5, gamma counter
Experimental: Radiolabeling was performed by adding up to 200 MBq of the ^153Sm radiolabeling solution to 20 nmol of the DOTA-TATE precursor dissolved in 0.15 M NaOAc buffer (pH 4.7) in a total reaction volume of 1 mL. The reaction vial was placed in a Thermomixer C (Eppendorf) to stir (500 rpm) and the mixture was heated to 95 °C for 15 min. After incubation, the radiolabeling yield was evaluated using thin-layer chromatography. An amount of 1–2 µL of the reaction mixture was spotted on a glass microfiber chromatography paper strip impregnated with silica gel (iTLC-SG, Agilent Technologies, Diegem, Belgium) that was eluted with a 0.5 M citrate solution (pH 5.5). After elution, the TLC papers were cut in half and the activity of the bottom and top part of the TLC paper was counted for 2 min each using an automated gamma counter.
After 1 h, 3 days, 5 days and 7 days, a 5 µL sample was spotted on the TLC system described above to identify the intact fraction.

SSTR2 receptors = target: T1, SSTR2 receptors (Rattus norvegicus, UniProt P30680); assay: Cell binding assay (membrane association and internalization); format: cell-based; settings: for decrease of binding by co-incubation with unlabeled DOTA-TATE: 1 h
T1 construct: CA20948 cells are derived from rat pancreas and express SSTR2 endogenously; endogenous in cells; host or cells: CA20948 rat pancreatic cancer cells
Experimental: Rat pancreatic cancer cell line CA20948 was used given the somatostatin receptor 2 (SSTR2) overexpression as it is found in many human neuroendocrine tumors. Cells were grown in DMEM High Glucose and Pyruvate medium (Gibco 41966029) supplemented with 10% fetal bovine serum (Gibco 10270106) and 100 U/mL penicillin-streptomycin (Sigma-Aldrich P4333) and were maintained in a humidified incubator at 37 °C with 5% CO2 supply. All in vitro results were obtained from a minimum of three replicates per condition.
Hereafter, fractions were collected. First, the membrane-bound fraction was collected following 10 min incubation at room temperature in strip buffer (50 mM glycine, 100 mM NaCl, pH 2.8). Then, the internalized fraction was collected by 30 min of cell lysis (1 M NaOH) at room temperature. […] In addition, total cell number per well was obtained using a MOXI™ automated cell counter (VWR, Leuven, Belgium).

[3] = male, BALB/c, bone, read-out: Bone %IA
[4] = male, BALB/c, bone, read-out: Bone SUV
[5] = male, BALB/c, in vivo, read-out: Excreted %IA
[6] = male, BALB/c, intestines, read-out: Intestines %IA
[7] = male, BALB/c, kidneys, read-out: Kidneys SUV
[8] = male, BALB/c, liver, read-out: Liver SUV
[9] = male, BALB/c, muscle, read-out: Muscle %IA
[10] = male, BALB/c, pancreas, read-out: Pancreas %IA
[11] = male, BALB/c, spleen, read-out: Spleen %IA
[12] = male, BALB/c, spleen, read-out: Spleen SUV

T1 sequence (P30680 whole entry): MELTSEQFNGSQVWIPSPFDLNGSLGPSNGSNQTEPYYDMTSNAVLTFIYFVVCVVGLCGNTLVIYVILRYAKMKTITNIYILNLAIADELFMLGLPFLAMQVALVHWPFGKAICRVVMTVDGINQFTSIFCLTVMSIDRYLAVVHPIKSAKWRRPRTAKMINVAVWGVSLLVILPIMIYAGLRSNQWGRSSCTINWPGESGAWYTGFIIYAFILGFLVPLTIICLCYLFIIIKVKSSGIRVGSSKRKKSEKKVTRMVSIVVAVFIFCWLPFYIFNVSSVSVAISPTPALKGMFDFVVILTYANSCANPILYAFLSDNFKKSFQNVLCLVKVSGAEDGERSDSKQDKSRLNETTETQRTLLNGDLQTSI

SMILES: C[C@@H](O)[C@H](NC(=O)[C@@H]1CSSC[C@H](NC(=O)[C@@H](Cc2ccccc2)NC(=O)CN2CCN(CC(=O)O)CCN(CC(=O)O)CCN(CC(=O)O)CC2)C(=O)N[C@@H](Cc2ccc(O)cc2)C(=O)N[C@H](Cc2c[nH]c3ccccc23)C(=O)N[C@@H](CCCCN)C(=O)N[C@@H]([C@@H](C)O)C(=O)N1)C(=O)O [[^153Sm]Sm-DOTA-TATE, metal not drawn]
- tissue uptake dose at 1 h ([1]; male, BALB/c, blood, read-out: Blood %IA): 0.7 ± 0.3 %ID
- tissue uptake dose at 1 h [1, 3]: 0.8 ± 0.4 %ID
- tissue uptake dose at 24 h [1, 3]: 0.7 ± 0.1 %ID
- tissue uptake dose at 72 h [1, 3]: 0.6 ± 0.1 %ID
- SUV at 1 h [1, 4]: 0.1 SUV
- SUV at 4 h [1, 4]: 0.1 SUV
- SUV at 24 h [1, 4]: 0.1 SUV
- SUV at 72 h [1, 4]: 0.1 SUV
- SUV at 1 h ([1]; male, BALB/c, heart, read-out: Heart SUV): 0.1 SUV
- tissue uptake dose at 1 h [1, 5]: 82 ± 4.8 %ID
- tissue uptake dose at 4 h [1, 5]: 90.2 ± 0.7 %ID
- tissue uptake dose at 24 h [1, 5]: 96.6 ± 0.4 %ID
- tissue uptake dose at 1 h [1, 6]: 0.6 ± 0.1 %ID
- tissue uptake dose at 4 h [1, 6]: 0.5 %ID
- tissue uptake dose at 72 h [1, 6]: 0.1 %ID
- tissue uptake dose at 4 h ([1]; male, BALB/c, kidneys, read-out: Kidneys %IA): 3.2 ± 0.1 %ID
- SUV at 24 h [1, 7]: 0.4 ± 0.1 SUV
- SUV at 72 h [1, 7]: 0.1 SUV
- tissue uptake dose at 4 h ([1]; male, BALB/c, liver, read-out: Liver %IA): 2.5 ± 0.8 %ID
- SUV at 1 h [1, 8]: 0.4 ± 0.1 SUV
- SUV at 24 h [1, 8]: 0.3 SUV
- tissue uptake dose at 1 h ([1]; male, BALB/c, lungs, read-out: Lungs %IA): 0.1 %ID
- SUV at 4 h ([1]; male, BALB/c, lungs, read-out: Lungs SUV): 0.1 SUV
- tissue uptake dose at 4 h [1, 9]: 1.1 ± 0.5 %ID
- tissue uptake dose at 24 h [1, 9]: 0.1 %ID
- tissue uptake dose at 72 h [1, 9]: 0.1 %ID
- SUV at 1 h ([1]; male, BALB/c, muscle, read-out: Muscle SUV): 0.6 ± 0.3 SUV
- tissue uptake dose at 1 h [1, 10]: 0.1 %ID
- tissue uptake dose at 4 h [1, 10]: 0.1 %ID
- SUV at 4 h ([1]; male, BALB/c, pancreas, read-out: Pancreas SUV): 0.1 SUV
- tissue uptake dose at 1 h [1, 11]: 0.3 ± 0.1 %ID
- tissue uptake dose at 4 h [1, 11]: 0.3 %ID
- tissue uptake dose at 24 h [1, 11]: 0.3 ± 0.1 %ID
- tissue uptake dose at 72 h [1, 11]: 0.1 %ID
- SUV at 24 h [1, 12]: 0.9 ± 0.3 SUV
- SUV at 72 h [1, 12]: 0.3 ± 0.1 SUV
- tissue uptake dose at 4 h ([1]; male, BALB/c, stomach, read-out: Stomach %IA): 0.1 ± 0.1 %ID
- SUV at 1 h ([1]; male, BALB/c, whole blood, read-out: Blood SUV): 0.1 SUV
- tissue uptake dose at 4 h ([1]; blood, 4 h p.i., healthy male BALB/c mice, ~2-3 MBq i.v., mean ± SD, n = 3-4, read-out: Blood %IA): 0.2 %ID
- tissue uptake dose at 4 h ([1]; bone, 4 h p.i., healthy male BALB/c mice, ~2-3 MBq i.v., mean ± SD, n = 3-4, read-out: Bone %IA): 0.6 ± 0.2 %ID
- Blood %IA ([1]; in vivo): 0.0 ± 0.0 %IA
- Blood SUV ([1]; in vivo): 0.0 ± 0.0
- Brain %IA ([1]; in vivo): 0.0 ± 0.0 %IA
- Brain SUV ([1]; in vivo): 0.0 ± 0.0
- Heart %IA ([1]; in vivo): 0.0 ± 0.0 %IA
- Heart SUV ([1]; in vivo): 0.0 ± 0.0
- Lungs %IA ([1]; in vivo): 0.0 ± 0.0 %IA
- Lungs SUV ([1]; in vivo): 0.0 ± 0.0
- Muscle SUV ([1]; in vivo): 0.0 ± 0.0
- Pancreas %IA ([1]; in vivo): 0.0 ± 0.0 %IA
- Pancreas SUV ([1]; in vivo): 0.0 ± 0.0
- Stomach %IA ([1]; in vivo): 0.0 ± 0.0 %IA
- tissue uptake dose at 72 h ([1]; in vivo, 72 h p.i., healthy male BALB/c mice, ~2-3 MBq i.v., mean ± SD, n = 3-4, read-out: Excreted %IA): 97.8 ± 0.2 %ID
- tissue uptake dose at 24 h ([1]; intestines, 24 h p.i., healthy male BALB/c mice, ~2-3 MBq i.v., mean ± SD, n = 3-4, read-out: Intestines %IA): 0.2 %ID
- tissue uptake dose at 24 h ([1]; kidneys, 24 h p.i., healthy male BALB/c mice, ~2-3 MBq i.v., mean ± SD, n = 3-4, read-out: Kidneys %IA): 0.7 ± 0.2 %ID
- tissue uptake dose at 72 h ([1]; kidneys, 72 h p.i., healthy male BALB/c mice, ~2-3 MBq i.v., mean ± SD, n = 3-4, read-out: Kidneys %IA): 0.2 %ID
- SUV at 4 h ([1]; liver, 4 h p.i., healthy male BALB/c mice, ~2-3 MBq i.v., mean ± SD, n = 3-4, read-out: Liver SUV): 0.5 ± 0.2 SUV
- tissue uptake dose at 24 h ([1]; liver, 24 h p.i., healthy male BALB/c mice, ~2-3 MBq i.v., mean ± SD, n = 3-4, read-out: Liver %IA): 1.6 ± 0.2 %ID
- tissue uptake dose at 72 h ([1]; liver, 72 h p.i., healthy male BALB/c mice, ~2-3 MBq i.v., mean ± SD, n = 3-4, read-out: Liver %IA): 1.2 ± 0.2 %ID
- SUV at 72 h ([1]; liver, 72 h p.i., healthy male BALB/c mice, ~2-3 MBq i.v., mean ± SD, n = 3-4, read-out: Liver SUV): 0.2 SUV
- SUV at 1 h ([1]; lungs, 1 h p.i., healthy male BALB/c mice, ~2-3 MBq i.v., mean ± SD, n = 3-4, read-out: Lungs SUV): 0.2 SUV
- SUV at 4 h ([1]; muscle, 4 h p.i., healthy male BALB/c mice, ~2-3 MBq i.v., mean ± SD, n = 3-4, read-out: Muscle SUV): 0.2 ± 0.1 SUV
- SUV at 1 h ([1]; pancreas, 1 h p.i., healthy male BALB/c mice, ~2-3 MBq i.v., mean ± SD, n = 3-4, read-out: Pancreas SUV): 0.2 SUV
- SUV at 1 h ([1]; spleen, 1 h p.i., healthy male BALB/c mice, ~2-3 MBq i.v., mean ± SD, n = 3-4, read-out: Spleen SUV): 0.8 ± 0.2 SUV
- SUV at 4 h ([1]; spleen, 4 h p.i., healthy male BALB/c mice, ~2-3 MBq i.v., mean ± SD, n = 3-4, read-out: Spleen SUV): 0.8 ± 0.2 SUV
- tissue uptake dose at 1 h ([1]; stomach, 1 h p.i., healthy male BALB/c mice, ~2-3 MBq i.v., mean ± SD, n = 3-4, read-out: Stomach %IA): 0.2 %ID
- radiochemical purity (intact fraction) [2]: > 99%
- time without leaching of 153Sm from the chelator: > 7 days
- internalized fraction of cell-associated activity (SSTR2 receptors; 2.5 nM (2.7 kBq), 1 h incubation, mean ± SD): 79 ± 2%
- decrease of binding by co-incubation with unlabeled DOTA-TATE (SSTR2 receptors; 4-fold molar excess of unlabeled DOTA-TATE): about 40%
- decrease of binding by co-incubation with unlabeled DOTA-TATE (SSTR2 receptors; 4000-fold molar excess of unlabeled DOTA-TATE): ~92%
